Patent US20230071765

Biological target: human insulin (disulfide-bonded heterodimer), P01308
Sequence (P01308 whole entry, looked up, one chain of several): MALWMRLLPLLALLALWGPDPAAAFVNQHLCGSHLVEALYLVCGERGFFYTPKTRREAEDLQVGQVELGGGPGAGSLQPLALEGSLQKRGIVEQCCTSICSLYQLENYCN

Protein | disulfide reduction activity by RP-HPLC (main HIC fraction after drying and reconstitution in saline) | conversion of insulin heterodimer peak (RP-HPLC insulin reduction, 0.025 mM ORP-100, pH 6, 60 min)
ORP100S (fully monocysteinic human thioredoxin-1, reduced form) (protein) VKQIESKTAFQEALDAAGDKLVVVDFSATWCGPSKMIKPFFHSLSEKYSNVIFLEVDVDDSQDVASESEVKSMPTFQFFKKGQKVGEFSGANKEKLEATINELV | the main fraction showed comparable disulfide reduction activity by DTNB and RP-HPLC to thioredoxin compositions purified without removing the red fraction | –
ORP-100 (C35S monocysteinic active site thioredoxin) (protein) VKQIESKTAFQEALDAAGDKLVVVDFSATWCGPSKMIKPFFHSLSEKYSNVIFLEVDVDDCQDVASECEVKCMPTFQFFKKGQKVGEFSGANKEKLEATINELV | – | even at acidic pH 6 ORP-100 is able to markedly reduce the insulin heterodimer peak, and at 1/500 the concentration of NAC
